Measurements: doi:10.1101/2023.01.30.526221

Key:
[1] = molecular target: PfRIPR (Plasmodium falciparum) (UniProt O97302); assay: SPR
[2] = molecular target: PfRIPR tail (Plasmodium falciparum) (UniProt O97302); assay: SPR
[3] = molecular target: full-length human basigin (human); assay: MST
[4] = molecular target: basigin ectodomain (human); assay: MST

Question: PfCSS-PfPTRAMP complex was tested. Which Kd [1] did it give?
Answer: 3000 nM

Question: And the Kd [2]?
Answer: 3000 nM

Question: What does the source list for PfRH5 (natural protein)?
Answer: Kd [3]: 120 nM; Kd [4]: 190 nM
